In patent US20200399311A1:
Non-standard residues stand in square brackets, D forms with d. No end group written: not given here. Hyp = O=C(O)[C@@H]1C[C@@H](O)CN1; NMeI = CC[C@H](C)[C@H](NC)C(=O)O; hArg = N=C(N)NCCCC[C@H](N)C(=O)O; Cit = NC(=O)NCCC[C@H](N)C(=O)O; Nle = CCCC[C@H](N)C(=O)O; APPA = not defined here; Aib = CC(C)(N)C(=O)O

B1: Short chain peptide Seq. ID. No. 8 (SI-Hyp-…) (peptide)
peptide: SI[Hyp]WNLERITPC
B2: Short chain peptide Seq. ID. No. 10 (SIPWN-Aib-ERITPC) (peptide)
peptide: SIPWN[Aib]ERITPC
B3: Short chain peptide Seq. ID. No. 12 (SIPWNLE-Cit-ITPC) (peptide)
peptide: SIPWNLE[Cit]ITPC
B4: Short chain peptide Seq. ID. No. 13 (…-Aib-PC) (peptide)
peptide: SIPWNLERI[Aib]PC
B5: Short chain peptide Seq. ID. No. 14 (Aib-…) (peptide)
peptide: [Aib]IPWNLERITPC
B6: Short chain peptide Seq. ID. No. 4 (SIPWNLER-Nle-TPC) (peptide)
peptide: SIPWNLER[Nle]TPC
B7: Short chain peptide Seq. ID. No. 15 (S-(N-Me-Ile)-…) (peptide)
peptide: S[NMeI]IPWNLERITPC
B8: Short chain peptide Seq. ID. No. 18 (SIP-APPA-NLERITPC) (peptide)
peptide: SIP[APPA]NLERITPC
modifications: reading uncertain
B9: Short chain peptide Seq. ID. No. 19 (SIP-Bip(OMe)-NLERITPC) (peptide)
peptide: SIP[Bip(OMe)]NLERITPC
B10: Short chain peptide Seq. ID. No. 5 (SIPWNLER-Aib-TPC) (peptide)
peptide: SIPWNLER[Aib]TPC
B11: Short chain peptide Seq. ID. No. 6 (SIPWNLE-Har-ITPC) (peptide)
peptide: SIPWNLE[hArg]ITPC
B12: Short chain peptide Seq. ID. No. 7 (SIPWN-Nle-ERITPC) (peptide)
peptide: SIPWN[Nle]ERITPC

Columns and labels:
[1] = target: Purified recombinant human PCSK9 (His-tagged, BPS Biosciences) (human) (UniProt Q8NBP7); test: SPR (Biacore T200), PCSK9 amine-coupled on chip, peptide at 50 µM
[2] = target: Purified recombinant human PCSK9 (His-tagged, BPS Biosciences) (human) (UniProt Q8NBP7); test: SPR (Biacore T200), PCSK9 amine-coupled on chip, peptide at 100 µM

Sequence of Purified recombinant human PCSK9 (His-tagged, BPS Biosciences) (human) (Q8NBP7 31-692 limits assumed): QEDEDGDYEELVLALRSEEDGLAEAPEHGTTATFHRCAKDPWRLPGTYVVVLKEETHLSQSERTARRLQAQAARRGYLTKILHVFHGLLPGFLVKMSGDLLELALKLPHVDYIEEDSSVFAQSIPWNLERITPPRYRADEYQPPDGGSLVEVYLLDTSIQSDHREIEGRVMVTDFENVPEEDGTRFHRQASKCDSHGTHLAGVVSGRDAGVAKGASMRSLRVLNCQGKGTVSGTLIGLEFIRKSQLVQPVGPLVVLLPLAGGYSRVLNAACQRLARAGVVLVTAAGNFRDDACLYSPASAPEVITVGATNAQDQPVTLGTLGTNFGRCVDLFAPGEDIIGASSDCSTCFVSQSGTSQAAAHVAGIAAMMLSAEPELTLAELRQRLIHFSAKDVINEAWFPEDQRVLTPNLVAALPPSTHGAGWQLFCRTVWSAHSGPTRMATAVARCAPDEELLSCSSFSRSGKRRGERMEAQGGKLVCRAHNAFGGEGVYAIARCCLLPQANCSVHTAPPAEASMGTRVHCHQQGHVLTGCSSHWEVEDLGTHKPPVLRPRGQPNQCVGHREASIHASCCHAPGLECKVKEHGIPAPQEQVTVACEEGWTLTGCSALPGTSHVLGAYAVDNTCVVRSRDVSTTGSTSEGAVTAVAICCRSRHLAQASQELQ

Binder | Binding - Response Unit (RU) [1] [RU] | Binding - Response Unit (RU) [2] [RU]
B1 | 5.7 | 13.2
B2 | 3 | 7.5
B3 | 3.1 | 6.7
B4 | 9.75 | 37.4
B5 | 7.1 | 15
B6 | 13.1 | 30
B7 | 11.4 | 29.9
B8 | 10.2 | 17.9
B9 | 35.1 | 85.9
B10 | 2.3 | 7.1
B11 | 6.55 | 17.5
B12 | 6.65 | 16
